# Tests used:
# purified protein [1] = substrate: O=C(O)c1ccc(O)cc1; assay: purified protein; conditions: apparent, 0.25 mM NADPH, 20 mM Tris-HCl pH 7.9, 25 °C
# purified protein [2] = substrate: O=C(O)c1ccc(O)c(O)c1; assay: purified protein; conditions: apparent, 0.25 mM NADPH, 20 mM Tris-HCl pH 7.9, 25 °C
Protein,Km (purified protein [1]),Km (purified protein [2]),kcat (purified protein [2]),kcat/Km (purified protein [2])
PkPobA (Pigmentiphaga kullae) (protein) MSERTQVGIVGAGPAGLLLSHLLHREGIESIVFDNRSREHVQQRLRAGVLEQGTVDLLAEVGLGERMRRLGMPQTSLDFRYAQASHRIDFAQEIGRTVMVYPQHEVVHDLIEARLAAGGDLRFDTPVTAIRDLEGPSPTILAGPEGRPVRCDFIAGCDGFHGICRDAIPASVMKAYDRVYPFGWLGILAEVPPAAPDVTWGCHETGFAMLSFRSPTRSRLYLQCEPDDDPDNWSDDRIWSALHERLDVPGMPPLIEGPIVQKGVTAMRSFQVEPLRHGALFLAGDAAHIVPPTGAKGLNSAVADIRVLGRALAAYYRQGSTRLLDSYSETCLRRMWLVHRFSAGLCTMVHSFPGQSDFARRLQRADLDYMTGSEPGRRAFSENFTGLPIEA,3.7 ± 1.8 × 10^−1 mM,3.2 ± 0.7 × 10^−1 mM,1.1 ± 0.1 s⁻¹,3700 ± 600 M⁻¹ s⁻¹
XaPobA (Xylophilus ampelinus) (protein) MRTQVGIVGAGPAGLMLAHLLRREGIDAVVIERAAREHVRTRLRAGVLEQGTVEMLREAGVGGRIDAVGMEMHAIDFRFGGRSHRLDFHEASGGRRAWVYPQHEVVTDLMSACDAGDVPILYEAPVERIEGLEDDRARIVFGQDGAAGEITCDFVAGCDGFRGVSRGSMPAGIARGYDRIYPFGWLGILADAPPASPDVTWGCSDRGFAMMSMRSPTVTRLYLQCEPDEDPDAWSDDRIWSELHRRLDVEGMPSLREGPIRDKGVTAMRSFLSEPMQHGRLFLAGDAAHIVPPTGAKGLNSAMADIKVLAAALVDHYRHGRSDRLATYSERCLRRMWLVQRFSAALCTMVHQFPGQNEFVRRLQRADLDYMTGTHAGRLQFAENFTGLPIE,4.3 ± 0.3 × 10^−1 mM,3.7 ± 0.9 × 10^−1 mM,–,–
PaPobA (Pseudomonas aeruginosa PAO1) (protein) MKTQVAIIGAGPSGLLLGQLLHKAGIDNVILERQTPDYVLGRIRAGVLEQGMVDLLREAGVDRRMARDGLVHEGVEIAFAGQRRRIDLKRLSGGKTVTVYGQTEVTRDLMEAREACGATTVYQAAEVRLHDLQGERPYVTFERDGERLRLDCDYIAGCDGFHGISRQSIPAERLKVFERVYPFGWLGLLADTPPVSHELIYANHPRGFALCSQRSATRSRYYVQVPLSEKVEDWSDERFWTELKARLPSEVAEKLVTGPSLEKSIAPLRSFVVEPMQHGRLFLAGDAAHIVPPTGAKGLNLAASDVSTLYRLLLKAYREGRGELLERYSAICLRRIWKAERFSWWMTSVLHRFPDTDAFSQRIQQTELEYYLGSEAGLATIAENYVGLPYEEIE,–,1.3 ± 0.2 × 10^−1 mM,–,–
